Here are results for 2 substances from PMC7497807.

As a reminder, the Kd is the concentration at which binding is half-saturated. Read a low Kd as higher affinity. For orientation: IC50 means the concentration needed to halve the response being measured. Low values mean inhibition by little substance, high ones a need for much substance.

Among the targets are FITC-CBX8 A335V peptide; BCOR (aa 1176–1225)-FITC (UniProt Q6W2J9); MBP-AF9.
Holding throughout (assay): fluorescence polarisation

Sequence of BCOR (aa 1176–1225)-FITC (Q6W2J9 1176-1225): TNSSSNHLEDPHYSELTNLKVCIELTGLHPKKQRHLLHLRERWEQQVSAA

On to MBP-AF9 (domain or fragment), for which the Kd in the experiment with FITC-CBX8 A335V peptide came to 12 nM; in the experiment with BCOR (aa 1176–1225)-FITC, 18 nM.

The substance unlabeled CBX8 A335V peptide showed an IC50 with MBP-AF9 of 96 nM.
